# According to article PMC4446614:
# Biological target: His-sumo-TBC1D15 (shark TBC1D15 from Chiloscyllium plagiosum) (Chiloscyllium plagiosum)
substance,measurement,value
MBP-Rab7a-WT (from UniProt P51149 1-207) (natural protein),"release of inorganic phosphate (Pi) by GTP hydrolysis, A360 read every 5 min (EnzChek Phosphate Assay Kit; Rab7 700 nM, TBC1D15 300 nM, 22 °C); Rab or TBC1D15 alone as the blank",0.4 A360
